Measured values taken from article PMC3534898.

Molecular target: Presenilin 1 (mouse (endogenous in primary neurons of CD1 mice)), P49769
Assay: FRET or BRET
Conditions: remark: other sources report otherwise

- FRET efficiency (E FRET), vehicle treated cells: 7.07%
B1: amyloid β precursor protein, P12023 18-770 (natural protein)
chain: LEVPTDGNAGLLAEPQIAMFCGKLNMHMNVQNGKWESDPSGTKTCIGTKEGILQYCQEVYPELQITNVVEANQPVTIQNWCKRGRKQCKTHTHIVIPYRCLVGEFVSDALLVPDKCKFLHQERMDVCETHLHWHTVAKETCSEKSTNLHDYGMLLPCGIDKFRGVEFVCCPLAEESDSVDSADAEEDDSDVWWGGADTDYADGGEDKVVEVAEEEEVADVEEEEADDDEDVEDGDEVEEEAEEPYEEATERTTSTATTTTTTTESVEEVVREVCSEQAETGPCRAMISRWYFDVTEGKCVPFFYGGCGGNRNNFDTEEYCMAVCGSVSTQSLLKTTSEPLPQDPDKLPTTAASTPDAVDKYLETPGDENEHAHFQKAKERLEAKHRERMSQVMREWEEAERQAKNLPKADKKAVIQHFQEKVESLEQEAANERQQLVETHMARVEAMLNDRRRLALENYITALQAVPPRPHHVFNMLKKYVRAEQKDRQHTLKHFEHVRMVDPKKAAQIRSQVMTHLRVIYERMNQSLSLLYNVPAVAEEIQDEVDELLQKEQNYSDDVLANMISEPRISYGNDALMPSLTETKTTVELLPVNGEFSLDDLQPWHPFGVDSVPANTENEVEPVDARPAADRGLTTRPGSGLTNIKTEEISEVKMDAEFGHDSGFEVRHQKLVFFAEDVGSNKGAIIGLMVGGVVIATVIVITLVMLKKKQYTSIHHGVVEVDAAVTPEERHLSKMQQNGYENPTYKFFEQMQN
